Patent publication US9540424B2, “Serum albumin binding molecules” (BRISTOL-MYERS SQUIBB COMPANY, priority 2010, dated 2017)

Experiments:
diabetic ob/ob mice = assay: HbA1c in diabetic ob/ob mice after 14 days of SABA1-FGF21v1 premixed with HSA; type: in vivo, mouse; conditions: for plasma levels: […] hours after the last dose
Experimental: HbA1c was measured in plasma samples 24 hours after the last dose (see FIG. 19).
SABA1-FGF21v1 plasma levels at the 0.01, 0.1 and 1 mg/kg doses were 3.85, 2.28 and 28.73 ng/ml respectively, 24 hours after the last dose.

MuSA = MuSA (Mus musculus, UniProt P07724); assay: SPR (Biacore T100) kinetics of FGF21-SABA1 fusions: MuSA; type: binding, murine; set-up: purchased Sigma A3559; conditions: flow rate 30 μl/min, up to 1 uM analyte
Chain of MuSA (P07724 25-608): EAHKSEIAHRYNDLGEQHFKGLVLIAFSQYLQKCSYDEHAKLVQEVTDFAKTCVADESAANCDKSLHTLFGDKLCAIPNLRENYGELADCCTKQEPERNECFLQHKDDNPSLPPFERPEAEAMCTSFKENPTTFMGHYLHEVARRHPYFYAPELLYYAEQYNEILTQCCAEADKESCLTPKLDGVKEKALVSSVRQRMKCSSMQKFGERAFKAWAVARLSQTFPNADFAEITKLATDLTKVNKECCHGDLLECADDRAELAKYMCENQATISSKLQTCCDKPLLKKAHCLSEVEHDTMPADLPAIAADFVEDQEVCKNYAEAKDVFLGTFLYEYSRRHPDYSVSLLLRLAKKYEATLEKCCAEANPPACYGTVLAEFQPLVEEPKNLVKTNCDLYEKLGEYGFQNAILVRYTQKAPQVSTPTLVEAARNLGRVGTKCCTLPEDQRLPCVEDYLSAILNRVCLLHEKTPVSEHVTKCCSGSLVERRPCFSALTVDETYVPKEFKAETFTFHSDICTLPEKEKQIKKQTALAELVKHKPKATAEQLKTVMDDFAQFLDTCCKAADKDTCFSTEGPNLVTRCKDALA
Experimental: The binding competency and thermodynamic characterization of FGF21-SABA fusion variants to human serum albumin were performed using Isothermal Titration calorimetry on a Microcal VP-ITC instrument (Microcal Inc. Amherst Mass., USA). […] The detailed experimental conditions are described below.
For the calorimetry assay, the FGF21-SABA variant SABA1-FGF21v1 (SEQ ID NO: 132) was used. […] For the SPR studies, SABA1-FGF21v1 and SABA1-FGF21v3 (SEQ ID NO: 134) were examined.
Serum albumins were dissolved in PBS buffer (10 mM sodium phosphate, 130 mM sodium chloride, pH 7.1) to a concentration of 10 mg/ml, and subsequently diluted to 8-10 μg/ml in 10 mM sodium acetate pH 5.0 for immobilization. Serum albumins were immobilized on a Series S CMS sensor chip using standard ethyl(dimethylaminopropyl) carbodiimide (EDC)/N-hydroxysuccinimide (NHS) chemistry in HBS-EP+ running buffer at 25° C., following general manufacturer guidelines. Flow cell 1 was activated with EDC/NHS and blocked with ethanolamine. […] Kinetic experiments were performed in PBS buffer containing 0.05% tween-20 (running buffer) at either 25° C. or 37° C. […] These samples were injected across flow cells 1-4 for 300 s, with a 420 s dissociation time, at flow rates of 30 μl/min or 60 μl/min to check for mass transfer limitation. All surfaces were regenerated with 2 pulses of 10 mM glycine pH 2.0 at 30 μl/min for 30 s. Raw sensograms were “double-referenced” by subtracting flow cell 1 data from flow cell 2, 3 or 4 data, and then subtracting a separate buffer cycle from each sensogram. The double-referenced sensogram data was fitted to a 1:1 Langmuir model using Biacore T100 Evaluation software version 2.0.2 to determine the association rate constant (ka), the dissociation rate constant (kd), and the equilibrium dissociation constant (KD).

B1: SABA1-FGF21v1: SABA1-FGF21 fusion, SEQ ID NO: 132; 293 aa; DNA SEQ ID NO: 184 (protein)
chain: MGVSDVPRDLEVVAATPTSLLISWHSYYEQNSYYRITYGETGGNSPVQEFTVPYSQTTATISGLKPGVDYTITVYAVYGSKYYYPISINYRTEIEKPSQGSGSGSGSGSGSGSPIPDSSPLLQFGGQVRQRYLYTDDAQQTEAHLEIREDGTVGGAADQSPESLLQLKALKPGVIQILGVKTSRFLCQRPDGALYGSLHFDPEACSFRELLLEDGYNVYQSEAHGLPLHLPGNKSPHRDPAPRGPARFLPLPGLPPALPEPPGILAPQPPDVGSSDPLSMVGPSQGRSPSYAS
With B1 the plasma levels (diabetic ob/ob mice; 0.01 mg/kg dose) was 3.85 ng/mL, the “decrease in HbA1c compared to baseline” value (diabetic ob/ob mice; 0.01 mg/kg with HSA 6 mg/kg, s.c. q.d. 14 days) was “no decrease” and the plasma levels (diabetic ob/ob mice; 0.1 mg/kg dose) was 2.28 ng/mL. The “decrease in HbA1c compared to baseline” value (diabetic ob/ob mice; 0.1 mg/kg with HSA 6 mg/kg, s.c. q.d. 14 days, not statistically significant) was 0.39%, the plasma levels (diabetic ob/ob mice; 1 mg/kg dose) was 28.73 ng/mL and the “decrease in HbA1c with respect to baseline” value (diabetic ob/ob mice; 1 mg/kg with HSA 6 mg/kg, s.c. q.d. 14 days) was 0.9%. For the same molecule, the “vehicle subtracted decrease in HbA1c” value (diabetic ob/ob mice; 1 mg/kg with HSA 6 mg/kg, s.c. q.d. 14 days, statistically significant) was 0.94%, the “binding to MuSA” value (MuSA; 25° C.) was “no binding observed up” and the “binding to MuSA” value (MuSA; 37° C.) was “no binding observed up”.
